In the Immune Epitope Database (IEDB):

Key:
HLA-B*48:01 = assay: IEDB peptide-MHC binding, purified MHC/competitive/fluorescence; filed as Kd, often an IC50 or EC50 that approximates it; ≥ and ≤ were set here for values at or beyond the usual limits of such assays
HLA-A*02:01 [1] = assay: IEDB peptide-MHC binding, purified MHC/competitive/radioactivity; ≥ and ≤ were set here for values at or beyond the usual limits of such assays; details: source organism: Homo sapiens
HLA-B*40:01 [2] = assay: IEDB peptide-MHC binding, purified MHC/competitive/fluorescence; filed as Kd, often an IC50 or EC50 that approximates it; ≥ and ≤ were set here for values at or beyond the usual limits of such assays
HLA-A*02:01 [3] = assay: as above; details: source organism: Yersinia pestis Nepal516
HLA-B*39:01 = assay: as above; details: source organism: Yersinia pestis Nepal516
HLA-B*08:01 = assay: IEDB peptide-MHC binding, purified MHC/direct/fluorescence; filed as Kd, often an IC50 or EC50 that approximates it; ≥ and ≤ were set here for values at or beyond the usual limits of such assays
HLA-B*58:01 = assay: as above
HLA-B*40:01 [4] = assay: as above
HLA-B*35:01 = assay: as above
HLA-A*01:01 = assay: as above
HLA-A*69:01 = assay: as above
HLA-B*27:05 [5] = assay: as above
HLA-B*15:01 = assay: as above
HLA-A*26:01 = assay: as above
HLA-B*44:02 = assay: as above
HLA-A*30:01 = assay: as above; details: source organism: Escherichia coli
HLA-A*02:01 [6] = assay: as above
HLA-B*07:02 = assay: as above
HLA-A*31:01 = assay: as above
HLA-A*03:01 = assay: as above
HLA-A*11:01 = assay: as above
HLA-B*46:01 = assay: as above; details: source organism: Giardia lamblia ATCC 50803
HLA-B*18:01 = assay: as above; details: source organism: Giardia lamblia ATCC 50803
HLA-A*24:02 = assay: as above; details: source organism: Giardia lamblia ATCC 50803
HLA-B*08:02 = assay: as above; details: source organism: Giardia lamblia ATCC 50803
HLA-C*12:03 = assay: as above; details: source organism: Mycobacterium tuberculosis variant bovis
HLA-C*15:02 = assay: as above; details: source organism: Mycobacterium tuberculosis variant bovis
HLA-C*05:01 = assay: as above; details: source organism: Mycobacterium tuberculosis variant bovis
HLA-B*27:05 [7] = assay: IEDB peptide-MHC binding, purified MHC/competitive/fluorescence; filed as Kd, often an IC50 or EC50 that approximates it; ≥ and ≤ were set here for values at or beyond the usual limits of such assays; details: source organism: Mammarenavirus juninense
[8] = source organism: Shigella dysenteriae
[9] = source organism: Escherichia coli
[10] = source organism: Giardia lamblia ATCC 50803
[11] = source organism: Vibrio parahaemolyticus

RQGKPDWLL
Kd (HLA-B*48:01; source organism: Vibrio vulnificus CMCP6): 0.124 µM

RQWFIDVPL
Kd (HLA-B*48:01; source organism: dengue virus type 2): 0.0684 µM

RTLDKVLEV
IC50 (HLA-A*02:01 [1]): 0.04 µM

TQFGVPFVL
Kd (HLA-B*40:01 [2]; source organism: Yersinia pestis Nepal516): 0.205 µM
Kd (HLA-A*02:01 [3]): 0.0135 µM
Kd (HLA-B*39:01): 0.0003 µM

TTFPVNGGY
Kd (HLA-B*08:01; [8]): ≥ 20 µM
Kd (HLA-B*58:01; [9]): ≥ 10 µM
Kd (HLA-B*40:01 [4]; [8]): ≥ 20 µM
Kd (HLA-B*35:01; [9]): 0.097 µM
Kd (HLA-A*01:01; [9]): 0.345 µM
Kd (HLA-A*69:01; [9]): 0.334 µM
Kd (HLA-B*27:05 [5]; [8]): ≥ 20 µM
Kd (HLA-B*15:01; [9]): 0.165 µM
Kd (HLA-A*26:01; [9]): 0.0228 µM
Kd (HLA-B*44:02; [8]): ≥ 20 µM
Kd (HLA-A*30:01): 16 µM
Kd (HLA-A*02:01 [6]; [8]): ≥ 20 µM
Kd (HLA-B*07:02; [8]): ≥ 20 µM
Kd (HLA-A*31:01; [8]): ≥ 20 µM
Kd (HLA-A*03:01; [9]): 1.46 µM
Kd (HLA-A*11:01; [9]): 5.77 µM

VESKNFADF
Kd (HLA-B*40:01 [2]; source organism: Bacillus cereus G9241): 0.418 µM

VSSKKCTAL
Kd (HLA-B*46:01): ≥ 20 µM
Kd (HLA-B*08:01; [10]): 17.7 µM
Kd (HLA-B*58:01; [10]): ≥ 20 µM
Kd (HLA-B*18:01): ≥ 20 µM
Kd (HLA-B*40:01 [4]; [10]): ≥ 20 µM
Kd (HLA-A*24:02): ≥ 20 µM
Kd (HLA-A*01:01; [10]): ≥ 20 µM
Kd (HLA-A*69:01; [10]): ≥ 20 µM
Kd (HLA-B*27:05 [5]; [10]): ≥ 20 µM
Kd (HLA-B*15:01; [10]): ≥ 20 µM
Kd (HLA-A*26:01; [10]): ≥ 20 µM
Kd (HLA-B*08:02): ≥ 20 µM
Kd (HLA-B*44:02; [10]): ≥ 20 µM
Kd (HLA-A*02:01 [6]; [10]): ≥ 20 µM
Kd (HLA-B*07:02; [10]): ≥ 20 µM
Kd (HLA-A*31:01; [10]): ≥ 20 µM
Kd (HLA-A*03:01; [10]): ≥ 20 µM
Kd (HLA-A*11:01; [10]): ≥ 20 µM

VTNDGVIFF
Kd (HLA-C*12:03): 0.319 µM
Kd (HLA-A*26:01; source organism: Mycobacterium tuberculosis variant bovis): 1.09 µM
Kd (HLA-C*15:02): ≥ 20 µM
Kd (HLA-C*05:01): 0.003 µM

YPKCDLVEL
Kd (HLA-B*08:01; [11]): 0.54 µM
Kd (HLA-B*58:01; [11]): ≥ 20 µM
Kd (HLA-B*40:01 [4]; [11]): ≥ 20 µM
Kd (HLA-B*35:01; [11]): 0.00816 µM
Kd (HLA-A*01:01; [11]): ≥ 20 µM
Kd (HLA-A*69:01; [11]): 0.177 µM
Kd (HLA-B*27:05 [5]; [11]): ≥ 20 µM
Kd (HLA-B*15:01; [11]): ≥ 20 µM
Kd (HLA-A*26:01; [11]): ≥ 20 µM
Kd (HLA-B*44:02; [11]): ≥ 20 µM
Kd (HLA-A*02:01 [6]; [11]): ≥ 20 µM
Kd (HLA-B*07:02; [11]): 0.224 µM
Kd (HLA-A*31:01; [11]): ≥ 20 µM
Kd (HLA-A*03:01; [11]): ≥ 20 µM
Kd (HLA-A*11:01; [11]): ≥ 20 µM

YRWVNLASF
Kd (HLA-B*27:05 [7]): 0.0981 µM
